From article PMC9500956, “In Vitro Characterization of the Physical Interactions between the Long Noncoding RNA TERRA and the Telomeric Proteins TRF1 and TRF2”

T1: GST-B (hB) (human, UniProt Q15554 43-86)
T1 chain: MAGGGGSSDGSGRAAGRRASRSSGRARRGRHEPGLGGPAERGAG

T2: GST-A (hA) (human, UniProt P54274 1-66)
T2 sequence: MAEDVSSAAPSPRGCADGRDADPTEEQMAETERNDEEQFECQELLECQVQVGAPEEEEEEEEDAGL

B1: TERRA (UUAGGG)12 (structured_RNA)
RNA: UUAGGGUUAGGGUUAGGGUUAGGGUUAGGGUUAGGGUUAGGGUUAGGGUUAGGGUUAGGGUUAGGGUUAGGG

Tests used:
Experiment in all cases: EMSA; E. coli tRNA; RNA EMSA: 50 mM HEPES pH 8, 1 mM DTT, 100 mM NaCl, 0.01% BSA, 2% glycerol, 50 ng/uL E. coli tRNA, 0.25 nM RNA, 20 min on ice then 10 min 25 C; dsDNA EMSA: same
GST-TRF2 = GST-TRF2 (human, UniProt Q15554 43-542); conditions: protein: recombinant, tags: N-terminal GST, chain copies: 2, label: 5'-32P
GST-B (hB) = target: T1, GST-B (hB); conditions: protein: recombinant, tags: N-terminal GST, label: 5'-32P
GST-TRF1 = GST-TRF1 (human, UniProt P54274 1-439); conditions: protein: recombinant, tags: N-terminal GST, chain copies: 2, label: 5'-32P
GST-hBL = GST-hBL (human, UniProt Q15554 1-86); conditions: protein: recombinant; tags: N-terminal GST; label: 5'-32P; G4-forming
GST-A (hA) = target: T2, GST-A (hA); conditions: protein: recombinant; tags: N-terminal GST; label: 5'-32P; G4-forming

Binder | binding result (GST-TRF2; not G4-forming) | binding result (GST-B (hB); not G4-forming) | binding result (GST-TRF1; not G4-forming) | binding result (GST-TRF2; G4-forming) | binding result (GST-B (hB); G4-forming) | binding result (GST-TRF1; G4-forming) | also measured
UUACGGUUACGGUUACGGUUACGGUUACGG (ssRNA) [MUT1 (UUACGG)5] | no binding | no binding | no binding | – | – | – | –
AUAGGGAUAGGGAUAGGGAUAGGGAUAGGG (structured_RNA) [MUT3 (AUAGGG)5] | – | – | – | binds | binds | binds | –
UUAGGGUUAGGGUUAGGGUUAGGGUUAGGG (structured_RNA) [TERRA (UUAGGG)5] | – | – | – | binds | binds | binds | binding result (GST-hBL): binds; binding result (GST-A (hA)): no binding
AAAGGGAAAGGGAAAGGGAAAGGGAAAGGG (structured_RNA) [MUT4 (AAAGGG)5] | – | – | – | binds | binds | binds | –
UUACCGUUACCGUUACCGUUACCGUUACCG (ssRNA) [MUT2 (UUACCG)5] | no binding | no binding | no binding | – | – | – | –
B1 | – | – | – | – | – | – | binding result (GST-B (hB)): binds
